Patent US20090324538A1

Key:
[1] = target: heterotrimeric IL-15R (αβγc chains) on CTLL-2 cells (UniProt Q60819); test: cell-based or functional assay
[2] = target: IL-15Rβγc receptors on 32Dβ cells; test: cell-based or functional assay

Chain of UniProt Q60819 (Q60819 33-263, chain 1 of 3): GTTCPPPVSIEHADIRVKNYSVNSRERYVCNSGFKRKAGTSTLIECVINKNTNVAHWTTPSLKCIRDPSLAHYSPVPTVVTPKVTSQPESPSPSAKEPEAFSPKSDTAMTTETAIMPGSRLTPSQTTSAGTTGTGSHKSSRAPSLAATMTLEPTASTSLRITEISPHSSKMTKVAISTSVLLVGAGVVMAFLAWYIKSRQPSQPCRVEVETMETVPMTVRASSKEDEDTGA
Chain of UniProt Q60819 (P16297 27-539, chain 2 of 3, further chain): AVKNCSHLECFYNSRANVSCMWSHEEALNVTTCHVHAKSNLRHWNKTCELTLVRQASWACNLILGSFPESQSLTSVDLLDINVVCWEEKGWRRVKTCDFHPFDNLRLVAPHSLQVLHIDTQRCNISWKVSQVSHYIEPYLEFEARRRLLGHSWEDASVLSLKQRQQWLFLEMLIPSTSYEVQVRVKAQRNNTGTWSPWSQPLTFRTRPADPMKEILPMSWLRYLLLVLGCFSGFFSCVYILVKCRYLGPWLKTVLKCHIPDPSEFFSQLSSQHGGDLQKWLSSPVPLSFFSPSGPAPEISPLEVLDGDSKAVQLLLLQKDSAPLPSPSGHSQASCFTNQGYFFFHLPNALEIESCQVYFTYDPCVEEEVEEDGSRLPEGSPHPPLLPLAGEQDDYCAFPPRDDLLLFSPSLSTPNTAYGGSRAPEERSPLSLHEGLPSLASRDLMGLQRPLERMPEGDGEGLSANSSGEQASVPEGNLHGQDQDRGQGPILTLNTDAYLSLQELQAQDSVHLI
Chain of UniProt Q60819 (P34902 23-369, chain 3 of 3, further chain): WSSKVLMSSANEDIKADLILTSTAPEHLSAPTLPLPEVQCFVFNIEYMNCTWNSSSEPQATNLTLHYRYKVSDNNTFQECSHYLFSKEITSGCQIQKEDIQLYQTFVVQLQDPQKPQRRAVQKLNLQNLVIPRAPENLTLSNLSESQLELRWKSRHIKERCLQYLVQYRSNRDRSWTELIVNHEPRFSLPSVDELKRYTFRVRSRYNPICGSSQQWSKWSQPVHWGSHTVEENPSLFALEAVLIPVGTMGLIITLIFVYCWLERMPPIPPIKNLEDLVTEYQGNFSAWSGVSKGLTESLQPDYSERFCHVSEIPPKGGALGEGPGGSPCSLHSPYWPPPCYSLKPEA

Substance	inhibition of c264scTCR/huIL15 stimulatory activity on CTLL-2 proliferation after complex formation [1]	proliferation of 32Dβ cells (WST-1), lowest concentration with biological activity [2]
c264scTCR/huIL15+c264scTCR/huIL15RαΔE3 fusion protein complex (from UniProt Q13261 31-205)	4 fold	
c264scTCR/huIL15N72D fusion protein (from UniProt P01857 99-113)		80 pM
